We go through 11 molecules from patent US20210340238A1, “TGFß1 INHIBITORS AND USE THEREOF” (Scholar Rock, Inc., priority 2018, published 2021).

Where a chain is given by its changes, count along the chain named.

The labels stand for the following.
B1: Ab19 (antibody, V domains shown)
VH: QVQLVESGGGVVQPGRSLRLSCAASGFTFSSFAMTWVRQAPGKGLEWVSAISGSGAATYFADSVKGRFTISRDNSKNTLYLQMNSLRAEDTAVYYCARVSSGHWDFDEWGQGTLVTVSS
VL: DIQLTQSPSSLSASVGDRVTITCRASQSISSYLNWYQQKPGKAPKLLIYAASNLQSGVPSRFSGSGSGTDFTLTISSLQPEDFATYYCQQTYTVPLTFGGGTKVEIK
B2: Ab20 (antibody, V domains shown)
VH: EVQLLESGGGLVQPGGSLRLSCAASGFTFSAYAMTWVRQAPGKGLEWVSAISGSGGVTYYADSVKGRFTISRDNSKNTLYLQMNSLRAEDTAVYYCARVSSGHWDYDYWGQGTLVTVSS
VL: B1 VL
B3: Ab11 (antibody, V domains shown)
VH: B2 VH with S30R, A31N, T35S, A50S, V57A, Y106F
VL: B1 VL
B4: Ab12 (antibody, V domains shown)
VH: B1 VH with S31D, F32Y, T35V, A56F, A57T, F60Y, E108Y
VL: B1 VL
B5: Ab2 (antibody, V domains shown)
VH: B2 VH with S30A, A31D, G56A, V57A, Y60F, Y106F
VL: B1 VL
B6: Ab14 (antibody, IgG1, V domains shown)
VH: B2 VH with S54T, V57S, Y106F
VL: B1 VL with L4M, N53S, T91V, T93D, V94P
B7: Ab13 (antibody, IgG1, V domains shown)
VH: B2 VH with S30A, A31D, G53S, S54F, G55A, G56S, V57A, T58I, Y106F
VL: B1 VL with L4M, N53S, T91V, T93D, V94P
B8: Ab17 (antibody, IgG1, V domains shown)
VH: B1 VH with Q1E, V5L, R16G, E108Y
VL: B1 VL
B9: Ab18 (antibody, IgG1, V domains shown)
VH: B1 VH with S31D, F32Y, T35V, R98T, E108Y
VL: B1 VL
B10: Ab15 (antibody, IgG1, V domains shown)
VH: B2 VH with L5V, L11V, G16R, A31D, T35V, G56F, V57T, Y106F
VL: B1 VL
B11: Ab16 (antibody, IgG1, V domains shown)
VH: B2 VH with A31N, T35S, G56F, V57T, Y106F
VL: B1 VL

The target of one test is Cell-associated proTGFβ1 (hGARP-proTGFβ1 and hLRRC33-proTGFβ1 complexes). As to the kind of experiment: MSD-SET; IgG4 from mammalian cells; mean of hGARP and hLRRC33.
Molecule B1 returned a Cell AVRG (average KD) of 4.75 nM.

Turning to B2, the Cell AVRG (average KD) was 1.35 nM.

The molecule B3 showed a Cell AVRG (average KD) of 4.65 nM.

Molecule B4 displayed a Cell AVRG (average KD) of 2.45 nM.

On to B5, for which the Cell AVRG (average KD) turned out to be 2.3 nM.

For a further test the target is unchanged. Briefly: Octet (BLI); IgG1 from yeast; mean of hGARP and hLRRC33.
As for B1, the Cell AVRG (average KD) is 5.95 nM.

Molecule B2 gave a Cell AVRG (average KD) of 0.715 nM.

On to B6, for which the Cell AVRG (average KD) worked out at 5.92 nM.

For the molecule B3, the Cell AVRG (average KD) is 0.699 nM.

B7: the Cell AVRG (average KD) amounted to 5.7 nM.

For the molecule B4, the Cell AVRG (average KD) turned out to be 3.89 nM.

In turn, B8 registered a Cell AVRG (average KD) of 4.64 nM.

Take B9: the Cell AVRG (average KD) was 6.26 nM.

In turn, B10 had a Cell AVRG (average KD) of 3.86 nM.

Consider B5, for which the Cell AVRG (average KD) was determined as 0.643 nM.

B11 displayed a Cell AVRG (average KD) of 2.4 nM.

Another test addresses Matrix-associated proTGFβ1 (hLTBP1-proTGFβ1 and hLTBP3-proTGFβ1 complexes). As to the kind of experiment: Octet (BLI); IgG1 from yeast; mean of hLTBP1 and hLTBP3. In general terms: BLI is a label-free optical method that tracks binding on a fibre tip over time.
B1 returned an ECM AVRG (average KD) of 0.172 nM.

Molecule B2 had an ECM AVRG (average KD) of 0.162 nM.

B6 showed an ECM AVRG (average KD) of 0.341 nM.

In the case of B3, the ECM AVRG (average KD) was determined as 0.161 nM.

Molecule B7 had an ECM AVRG (average KD) of 0.263 nM.

B4 had an ECM AVRG (average KD) of 0.17 nM.

B8 came in with an ECM AVRG (average KD) of 0.191 nM.

For the molecule B9, the ECM AVRG (average KD) amounted to 0.284 nM.

On to B10, for which the ECM AVRG (average KD) was determined as 0.159 nM.

B5 returned an ECM AVRG (average KD) of 0.157 nM.

B11 displayed an ECM AVRG (average KD) of 0.157 nM.

For another test the target is unchanged. Briefly: Octet (BLI); cell average KD over ECM average KD.
Regarding B1, the G/D (fold bias) came to 34.5 fold.

For B2, the G/D (fold bias) is 4.42 fold.

B6 displayed a G/D (fold bias) of 17.4 fold.

B3 gave a G/D (fold bias) of 4.35 fold.

In turn, B7 yielded a G/D (fold bias) of 21.7 fold.

In the case of B4, the G/D (fold bias) worked out at 22.9 fold.

Turning to B8, the G/D (fold bias) was determined as 24.3 fold.

For B9, the G/D (fold bias) amounted to 22 fold.

Consider B10, for which the G/D (fold bias) was 24.2 fold.

For B11, the G/D (fold bias) turned out to be 15.3 fold.

The target is the same in another test. Briefly: MSD-SET; IgG4 from mammalian cells; mean of hLTBP1 and hLTBP3.
The molecule B1 had an ECM AVRG (average KD) of 2.83 nM.

B2 displayed an ECM AVRG (average KD) of 0.2 nM.

Molecule B3 returned an ECM AVRG (average KD) of 1.2 nM.

B4: the ECM AVRG (average KD) was 0.72 nM.

Turning to B5, the ECM AVRG (average KD) came out at 0.266 nM.

A further test has the same target. As to the kind of experiment: MSD-SET; cell average KD over ECM average KD.
As for B1, the G/D (fold bias) is 1.68 fold.

In turn, B2 gave a G/D (fold bias) of 6.75 fold.

With B3, the G/D (fold bias) is 3.87 fold.

As for B4, the G/D (fold bias) is 3.4 fold.
